Target: SARS-COV-2 RBD extracellular domain expressed with a C-terminal myc-myc-hexahistidine tag (SARS-COV-2 RBD-mmH) (SARS-CoV-2)
Test: SPR Biacore, mAb captured on anti-hFc, RBD-mmH analyte, 37 C

B1: mAb14312 (antibody, V domains shown)
VH: EVQLVESGGGLVQPGGSLRLSCAASGFTVSRSYMTWVRQAPGKGLEWVSVIFTGGRTDHADSVKGRFTISRHNSKNTLYLQMNSLRTEDTAVYYCARVAIVGATGAFDIWGQGTMVTVSS
VL: QSVLTQPPSVSGAPGQRVTISCTGSSSNIGAGDDVHWYQQLPGTAPKLLIYGNSNRPSGVPDRFSGSKSGTSASLAITGLQAEDEADYYCQSYDSSLSGSVVFGGGTKLTVLG
Kd: 0.631 nM
koff: 0.000988 s⁻¹
kon: 1.57e+06 M⁻¹ s⁻¹
t½: 11.7 min

B2: mAb14257 (antibody, V domains shown)
VH: EVQLVESGGGLVQPGGSLRLSCAASGFTVSRSYMNWVRQAPGKGLEWVSVVFTGGTTKHTDSVKGRFTISRDNSMNTLYLQMNSLRPEDTAVYYCARVAIVETTGAFDIWGQGTMVTVSS
VL: QSVLTQPPSVSGAPGQRVTISCTGTSSNIGADFDVHWYQQFPGTAPKLLIYGHTNRPSGIPDRFSGSKSGTSASLAITGLQAEDEADYYCQSYDSSLSGSVVFGGGTKLTVLG
Kd: 2.34 nM
koff: 0.00762 s⁻¹
kon: 3.26e+06 M⁻¹ s⁻¹
t½: 1.5 min

B3: mAb14258 (antibody, V domains shown)
VH: QLQLQESGPGLVKPSETLSLICTGSGDSISSSHYYWGWIRQPPGKGLEWIGSTYFSGSTYYNPSLKSRVSISVDTSKNQVSLKLISVTAADTAVYYCAREMGATLGDYWGPGTLVTVSS
VL: QSVLTQPPSASGTPGQRVTISCSGSSSNIGNNYVYWYQQFPGTTPRLLIYRNNERPSGVPDRFSGSKSGTSASLVISGLRSEDEADYYCAAWDDSLSAHYVFGTGTKVTVLG
Kd: 0.796 nM
koff: 0.0017 s⁻¹
kon: 2.14e+06 M⁻¹ s⁻¹
t½: 6.8 min

B4: mAb14283 (antibody, V domains shown)
VH: QVQLQESGPGLVKPSGTLSLTCDVSGGSISSNNWWSWVRQRPGKGLQWIGEIYHNENTNYNPSLKSRVIMSIDKSKNQFSLKLTSVTAADTAVYYCARGDVLDWFDPWGQGTLVTVSS
VL: QSALTQPASVSGSPGQSTTISCTGTSSDVGGYNYVSWYQQYPGKAPKLMIYDVTNRPSGVSHRFSGSKSGNTASLTISGLQAEDEADYYCSSYTSSSTVIFGGGTKLTVLG
Kd: 1.17 nM
koff: 0.00179 s⁻¹
kon: 1.54e+06 M⁻¹ s⁻¹
t½: 6.4 min

B5: mAb14284 (antibody, V domains shown)
VH: QITLKESGPTLVKPTQTLTLTCTFSGFSFSTSGVGVGWIRQPPGKTLEWLALIYWDDDKRYSPSLKSRLTITKDTSKNQVVLTMTNMDPVDTATYFCAHHGIPTIFGYWGQGALVTVSS
VL: QSALTQPASVSGSPGQSITISCTGTSSDLGVFNYVSWYQQHPGKAPKLMIYEVTNRPSGVSNRFSGSKSGNTASLTISGLQAEDEADYYCSSYTTSSTVFGGGTKLTVLG
Kd: 0.94 nM
koff: 0.000605 s⁻¹
kon: 644000 M⁻¹ s⁻¹
t½: 19.1 min

B6: mAb14235 (antibody, V domains shown)
VH: QITLKESGPTLVKPTQTLTLTCTFSGFSLNTGGVGVGWIRQPPGNALEWLALIYWDDDKRYNPSLKTRLTISKDTSKNQVVLTMTNMDPVDTATYFCAHLTIAVIVDFWGQGTLVTVSS
VL: QSALTQPASVSGSPGQSITISCTATSSDVGTYNYVSWFQHHPGKAPKLMIYEVTNRPSGVSNRFSGSKSGNTASLTISGLQAEDEADYYCSSYTTTSIVFGGGTKLTVLG
Kd: 1.37 nM
koff: 0.00109 s⁻¹
kon: 793000 M⁻¹ s⁻¹
t½: 10.6 min

B7: mAb14255 (antibody, V domains shown)
VH: QVQLQESGPGLVKPSETLSLTCTVSGGSISGYYWSWIRQPPGKGLDWIGYIYYRGNTNYNPSLKSRVTISVDTSNNQFSLKLSSVTAADTAVYYCARYGEGYGDASGYHFDYWGQGTLVTVSS
VL: QSALTQPASVSGSPGQSITISCTGTSSDVGSYNLVSWYQQHPGKAPKLMIYEDSKRPSGVANPFSGSKSGNTASLTISGLQAEDEADYYCSSYAGSSTWVFGGGTKLTVLG
Kd: 2.76 nM
koff: 0.00535 s⁻¹
kon: 1.94e+06 M⁻¹ s⁻¹
t½: 2.2 min

B8: mAb14247 (antibody, V domains shown)
VH: QITLKESGPTLVKPTQTLTLTCTFSGFSLSTSAVGVGWIRQPPGKALEWLALIYWDDDKRYSPSLKSRLTITKDTSKNQLVLTMTNVDPVDTATYYCAHHTIQLIFDYWGQGTLVTVSS
VL: QSALTQPASVSGSPGQSITISCTATSSDVGNYNYVSWYQQHPGKAPKLMIYEVSNRPSGVSNRFSGSKSGNTASLTISGLQAEDEADYYCSSYTSSSTPLVFGGGTKLTVLG
Kd: 1.95 nM
koff: 0.00163 s⁻¹
kon: 832000 M⁻¹ s⁻¹
t½: 7.1 min

B9: mAb14294 (antibody, V domains shown)
VH: EVQLVESGGGLVQPGGSLRLSCAASGFTFSNHWMDWVRQAPGKGLVWVSRINSDGSSTDYADSVRGRFTMSRDNAKNTLYLQMSSLRAEDTAVYYCAREGMIFGAVIIPGWYFDLWGRGALVTVSS
VL: EIVLTQSPGTLSLSPGERATLSCRASQSVSSSQLAWYQQKPGQAPRLLIYGASSRATGIPDRFSGSGSGTDFTLTISRLEPEDFAVYYCQQYDSFGQGTKLEIKR
Kd: 0.984 nM
koff: 0.00059 s⁻¹
kon: 600000 M⁻¹ s⁻¹
t½: 19.6 min

B10: mAb14313 (antibody, V domains shown)
VH: EVQLVESGGGLVQPGRSLRLSCVASGFTFDDSAMHWVRQPPGKGLEWVSGISWNSGIIGYAESVKGRFIISRDNAKNSLFLHMRGLRPEDTAVYYCARDRLELSYYYYGMDVWGQGTTVTVSS
VL: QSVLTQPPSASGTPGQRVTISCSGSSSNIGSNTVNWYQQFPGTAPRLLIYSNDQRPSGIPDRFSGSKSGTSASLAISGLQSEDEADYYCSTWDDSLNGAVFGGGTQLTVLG
Kd: 0.921 nM
koff: 0.00259 s⁻¹
kon: 2.81e+06 M⁻¹ s⁻¹
t½: 4.5 min

B11: mAb14315 (antibody, V domains shown)
VH: QVQLVQSGAEVKKPGSSVKVSCKASGDTFSTYAINWVRQAPGQGLEWMGRFIHIFGTANYAQKFQGRVTITADESTSTAYMELRSLRSEDTAVYYCARDGVDYGDYRPDYWGQGTLVTVSS
VL: EIVLTQSPGTLSLSPGERATLSCRASQSVSSNYLAWYQQKPGQAPRLLIYGASSRATGIPERFSGSGSGTDFTLTISRLEPEDFAVYYCQQYGSSLYTFGQGTKLEIKR
Kd: 2.26 nM
koff: 0.000985 s⁻¹
kon: 435000 M⁻¹ s⁻¹
t½: 11.7 min

B12: mAb13458 (antibody, V domains shown)
VH: EVQLVESGGGLVQPGRSLRLSCAASGFTFDDYAMHWVRQAPGKGLEWVSGISWNSGSIGYADSVKGRFTISRDNAKNSLYLQMNSLRAEDTALYYCAKDIGITTPYWGQGTLVTVSS
VL: AIQMTQSPSSLSASVGDRVTITCRASQDIRNDLGWYQQKPGKAPKLLIYSASSLQTGVPSRFSGSGSGTDFTLTISSLHPEDFATYYCLQDYWYTWTFGQGTKVEIKR
Kd: 1.54 nM
koff: 0.00139 s⁻¹
kon: 907000 M⁻¹ s⁻¹
t½: 8.3 min

B13: mAb13459 (antibody, V domains shown)
VH: EVQLVESGGGLVQPGRSLRLSCAASGFTFDDYAMHWVRQAPGKGLEWVSGISWNSGSIGYADSVKGRFTISRDNAKNSLYLQMNSLRAEDTALYYCAKDIGITTPYWGQGTLVTVSS
VL: AIQMTQSPSSLSASVGDRVTITCRASQDIRNDLGWYQQKPGKAPKLLIYSASSLQTGVPSRFSGSGSGTDFTLTISSLHPEDFATYYCLQDYNYVWTFGQGTKVEIKR
Kd: 2.6 nM
koff: 0.00204 s⁻¹
kon: 786000 M⁻¹ s⁻¹
t½: 5.7 min

B14: mAb14289 (antibody, V domains shown)
VH: QVQLVQSGPEVKKPGASVKVSCKASGYTFTSYAISWVRQAPGQGLEWMGWISAYNGNTNYAQKLQGRVTMTTDTFTSTAYMELRSLRSDDTAVYYCAVPADHITFDYWGQGTLVTVSS
VL: EIVLTQSPGTLSLSPGERATLSCRASQSVSSYLAWYQQKPGQAPRLLIHGASSRATGIPDRFSGSGSGTDFTLTISRLEPEDFAVYYCQQYGSSFLTFGGGTKVEIKR
Kd: 1.46 nM
koff: 0.00176 s⁻¹
kon: 1.2e+06 M⁻¹ s⁻¹
t½: 6.5 min

From patent publication US20260069689A1 (Regeneron, published 2026)
